What was measured:
BSA-glutathione (bovine) [1] = target: BSA-glutathione (bovine) (UniProt P02769); assay: ELISA, culture supernatant on BSA-GSH plates without mercury
BSA-glutathione (bovine) [2] = target: BSA-glutathione (bovine) (UniProt P02769); assay: ELISA, culture fluid on glutathione-BSA (column Glutathione)
BSA-glutathione (bovine) [3] = target: BSA-glutathione (bovine) (UniProt P02769); assay: ELISA, subclone culture fluid on BSA-glutathione, average of triplicates

Row | Binder | absorbance at 405 nm (absorbance at 405 nm) (BSA-glutathione (bovine) [1]) | absorbance at 405 nm (absorbance at 405 nm) (BSA-glutathione (bovine) [2]) | absorbance at 405 nm (absorbance at 405 nm) (BSA-glutathione (bovine) [3])
1 | monoclonal antibody 2D5 (antibody, V domains shown) VH: SGGGSVKPGGSLKLSCAASGFTFSSCAMSWVRQTPEKRLEWVATISSGGSYTYYPDSVKGRFTIFRHNAENTLYLQMSSLRSEDTAIYYCVRQDGYYGNYVWFAYWGQGTLVTVSA VL: ELVMTQSPASLSASVGETVTITCRASENIYGYLAWYQQKQGKSPLPRVYNAKTLAEDVSSRVSGSGSGTQFSLKIRTSQPEDFGTYYCQHHYGTPYTFGGGTKLEIK | 0.09 |  | 
2 | monoclonal antibody 4A10 (antibody, V domains shown) VH: EVQLQQSGPELVKPGALVKISCKASGYTFTSYDINWVKQRPGQGLEWIGWIYPGDGSTKYNEKFKGKATLTADKSSSTAYMQLSSLTSENSAVYFCARCGYAMDYWGQGTSVTVSS VL: DVLMTQTPLSLPVSLGDQASISCRSSQSIVHSNGNTYLEWYLQKPGQSPKLLIYKVSNRFSGVPDRFSGSGSGTDFTLKISRAEAEDLGVYYCFQGSHVRYTFGGGTKLEIK | 0.078 | 0.4 | 0.322
3 | monoclonal antibody 1C11 (antibody, V domains shown) VH: SGAELVKPGASVKLSCKTSGYTVTSYWMGWVKQRPGQGLEWIGNIYPDSGTTNYNEKFKNKATLTVDTFSSTVYMQLSSLTSEDSAVYYCARGVYSYYSYDVYAMDYWGQGTSVTVSS VL: DLVLTQSPPSLAVSLGQRSTISCRSSQSIVHSNGNTYLHWYQQNPGQPPKLLIKYASNLESGVPARFSGSGSGTDFTLNIHPAEVEDSATYFCQHSWEIPPTFGGGTKLEIK | 0.094 |  | 

The remaining lines, values ahead:

Row | absorbance at 405 nm (absorbance at 405 nm) (BSA-glutathione (bovine) [1]) | absorbance at 405 nm (absorbance at 405 nm) (BSA-glutathione (bovine) [2]) | absorbance at 405 nm (absorbance at 405 nm) (BSA-glutathione (bovine) [3]) | Binder
4 | 0.019 |  |  | monoclonal antibody 5B6 (antibody, V domains shown) VH: SGGGSVKPGGSLKLSCAASGFTFSSRAMSWVRQTPEKRLEWVATISSGGSYTYYPDSVKGRFTISRHNAENTLYFQMSSLRSEDTAIYYCVRQTGYYGNYEWFAYWGQGLLVTVSA VL: DIQMTQSPSSLSASLGERVTLTCRASQDIGSSLNWLQLKPDGTIKRLIYATSGLDSGVPKRFSGSRSGSDYSLTINSPESEDFVDYYCLQCSNSPYTFGGGTKLEIN
5 | 0.028 |  |  | monoclonal antibody 5G4 (antibody, V domains shown) VH: SVPARLKPGASVRISCKASAYSFTGYFMNWMKQSHGKTLEWIGRINPYNGDTFYNQKFKSKATVTVDKSSSTAHMELLSLTSEDSAVYYCGTQPLDYWGQGTTLTVSS VL: DIQMTQSPSSLSASLGERVTLTCRASQDIGSSLNWLQLKPDGTIKRLIYATSGLDSGVPKRFSGSRSGSDYSLTINSPESEDFVDYYCLQCSNSPYTFGGGTKLEIK
6 | 0.168 |  |  | monoclonal antibody 23F8 (antibody, V domains shown) VH: SGPELVKTGASVKISCKASGYSFTGYYMHWVKQSHGKSLEWIGYISCYNGATSYNQKFKGKATFTVDTSSSTAYMQFNSLTSEDSAVYYCARSGIYDVTTTLTTGAKAPLSQSP VL: DIQMTQSPSSLSASLGGKVTITCKASQDINKYIAWYQHKPGKGPRLLIHYTSTLQPGIPSRFSGSGSGRDYSFSISNPEPEDIATYYCLQYDNSLFTFGSGTKLEIK
